For six molecules, binding result and fold above background results are on record in patent publication EP2182008A2 (ICOS Corporation, dated 2010).

B1: soluble ICAM-R/IgG1 fusion protein (Fc fusion, UniProt P32942 30-485, looked up)
chain: QEFLLRVEPQNPVLSAGGSLFVNCSTDCPSSEKIALETSLSKELVASGMGWAAFNLSNVTGNSRILCSVYCNGSQITGSSNITVYRLPERVELAPLPPWQPVGQNFTLRCQVEDGSPRTSLTVVLLRWEEELSRQPAVEEPAEVTATVLASRDDHGAPFSCRTELDMQPQGLGLFVNTSAPRQLRTFVLPVTPPRLVAPRFLEVETSWPVDCTLDGLFPASEAQVYLALGDQMLNATVMNHGDTLTATATATARADQEGAREIVCNVTLGGERREARENLTVFSFLGPIVNLSEPTAHEGSTVTVSCMAGARVQVTLDGVPAAAPGQPAQLQLNATESDDGRSFFCSATLEVDGEFLHRNSSVQLRVLYGPKIDRATCPQHLKWKDKTRHVLQCQARGNPYPELRCLKEGSSREVPVGIPFFVNVTHNGTYQCQASSSRGKYTLVVVMDIEAGSSH
notes: not shown: IgG1 portion
B2: soluble ICAM-1/IgG1 fusion protein (Fc fusion, UniProt P05362 28-480, looked up)
chain: QTSVSPSKVILPRGGSVLVTCSTSCDQPKLLGIETPLPKKELLLPGNNRKVYELSNVQEDSQPMCYSNCPDGQSTAKTFLTVYWTPERVELAPLPSWQPVGKNLTLRCQVEGGAPRANLTVVLLRGEKELKREPAVGEPAEVTTTVLVRRDHHGANFSCRTELDLRPQGLELFENTSAPYQLQTFVLPATPPQLVSPRVLEVDTQGTVVCSLDGLFPVSEAQVHLALGDQRLNPTVTYGNDSFSAKASVSVTAEDEGTQRLTCAVILGNQSQETLQTVTIYSFPAPNVILTKPEVSEGTEVTVKCEAHPRAKVTLNGVPAQPLGPRAQLLLKATPEDNGRSFSCSATLEVAGQLIHKNQTRELRVLYGPRLDERDCPGNWTWPENSQQTPMCQAWGNPLPELKCLKDGTFPLPIGESVTVTRDLEGTYLCRARSTQGEVTRKVTVNVLSPRYE
notes: also called ICAM-I/IgG; not shown: IgG1 portion
B5: VCAM-1/IgG1 fusion protein (seven extracellular immunoglobulin-like domains) (Fc fusion, UniProt P19320 25-698, looked up)
chain: FKIETTPESRYLAQIGDSVSLTCSTTGCESPFFSWRTQIDSPLNGKVTNEGTTSTLTMNPVSFGNEHSYLCTATCESRKLEKGIQVEIYSFPKDPEIHLSGPLEAGKPITVKCSVADVYPFDRLEIDLLKGDHLMKSQEFLEDADRKSLETKSLEVTFTPVIEDIGKVLVCRAKLHIDEMDSVPTVRQAVKELQVYISPKNTVISVNPSTKLQEGGSVTMTCSSEGLPAPEIFWSKKLDNGNLQHLSGNATLTLIAMRMEDSGIYVCEGVNLIGKNRKEVELIVQEKPFTVEISPGPRIAAQIGDSVMLTCSVMGCESPSFSWRTQIDSPLSGKVRSEGTNSTLTLSPVSFENEHSYLCTVTCGHKKLEKGIQVELYSFPRDPEIEMSGGLVNGSSVTVSCKVPSVYPLDRLEIELLKGETILENIEFLEDTDMKSLENKSLEMTFIPTIEDTGKALVCQAKLHIDDMEFEPKQRQSTQTLYVNVAPRDTTVLVSPSSILEEGSSVNMTCLSQGFPAPKILWSRQLPNGELQPLSENATLTLISTKMEDSGVYLCEGINQAGRSRKEVELIIQVTPKDIKLTAFPSESVKEGDTVIISCTCGNVPETWIILKKKAETGDTVLKSIDGAYTIRKAQLKDAGVYECESKNKVGSQLRSLTLDVQGRENNKDYFSPE
notes: domain: seven extracellular immunoglobulin-like domains; also called VCAM-I/Ig; VCAM-I/IgG; not shown: IgG1 portion

Experiment [1] has as its target T1, human αd/CD18 expressed on transfected cells (human, UniProt P05107 23-769).
T1 construct: whole, on cells; Heterodimer on COS, CHO or JY transfectants; also called αd/CD18 transfectants; αd/CD18 CHO transfected cells
Description: summary of the adhesion and flow cytometry assays.

Experiment [2] has as its target T2, α4β1 expressed on CHO cells (UniProt P13612 34-1032; P05556 21-798, limits assumed).
T2 construct: whole, on cells; also called VLA-4; α4 transformed CHO cells
Description: adhesion of transfected CHO cells to immobilized CAM, crystal violet.

In experiment [3] the target is T1, human αd/CD18 expressed on transfected …. The description is as above.
Experiment [4] addresses T3, LFA-1 leucine zipper fusion protein (UniProt P20701 26-1090; P05107 23-700).
T3 construct: also called LFA-1LZ; captured CD11a/CD18; not shown: leucine zipper strand
Description: ELISA, CAM/Ig on captured integrin.

Experiment [5] concerns the target T1, human αd/CD18 expressed on transfected …. Description: adhesion of transfected CHO cells to immobilized CAM, crystal violet, A570.
In experiment [6] the target is B1. Description: ELISA, detection with anti-IgG4 HP6023. A general note: ELISA stands for enzyme-linked immunosorbent assay.
Experiment [7] concerns the target B2. Description: ELISA, detection with anti-IgG4 HP6023.
Experiment [8] deals with B5. Description: ELISA, detection with anti-IgG4 HP6023.
For experiment [9], the target named is T3, LFA-1 leucine zipper fusion protein. Description: ELISA, CAM/Ig on LFA-1LZ captured with TS2/4.1.
Experiment [10] concerns the target T1, human αd/CD18 expressed on transfected …. Description: adhesion of αdβ2-transfected CHO cells to coated wells.

T2 sequence (P13612 34-1032 limits assumed, chain 1 of 2): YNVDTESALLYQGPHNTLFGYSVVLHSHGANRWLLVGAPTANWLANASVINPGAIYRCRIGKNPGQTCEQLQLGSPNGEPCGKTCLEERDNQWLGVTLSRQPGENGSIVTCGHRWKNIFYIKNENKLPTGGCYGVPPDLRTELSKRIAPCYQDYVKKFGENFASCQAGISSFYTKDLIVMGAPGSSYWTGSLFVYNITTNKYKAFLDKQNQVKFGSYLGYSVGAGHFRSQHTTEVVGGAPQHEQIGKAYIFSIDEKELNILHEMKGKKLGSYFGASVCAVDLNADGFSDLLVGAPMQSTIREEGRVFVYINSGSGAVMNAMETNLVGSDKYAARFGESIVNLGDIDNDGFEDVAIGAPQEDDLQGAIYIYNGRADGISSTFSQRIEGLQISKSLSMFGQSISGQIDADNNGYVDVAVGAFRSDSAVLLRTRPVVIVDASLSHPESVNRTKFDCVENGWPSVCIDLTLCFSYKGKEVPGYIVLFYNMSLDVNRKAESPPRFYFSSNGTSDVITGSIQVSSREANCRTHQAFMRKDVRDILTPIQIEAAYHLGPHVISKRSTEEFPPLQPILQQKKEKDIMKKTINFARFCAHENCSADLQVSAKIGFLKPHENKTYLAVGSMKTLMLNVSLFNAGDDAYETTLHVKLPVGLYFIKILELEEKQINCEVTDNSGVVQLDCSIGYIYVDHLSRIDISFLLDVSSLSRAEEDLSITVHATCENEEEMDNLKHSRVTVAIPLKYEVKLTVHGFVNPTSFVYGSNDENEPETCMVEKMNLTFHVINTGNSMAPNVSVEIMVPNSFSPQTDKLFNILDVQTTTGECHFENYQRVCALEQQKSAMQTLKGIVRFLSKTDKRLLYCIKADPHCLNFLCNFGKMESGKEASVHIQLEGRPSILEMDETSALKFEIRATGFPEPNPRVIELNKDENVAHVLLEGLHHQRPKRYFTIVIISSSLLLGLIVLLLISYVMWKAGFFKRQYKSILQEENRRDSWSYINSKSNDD
T2 sequence (P05556 21-798 limits assumed, chain 2 of 2): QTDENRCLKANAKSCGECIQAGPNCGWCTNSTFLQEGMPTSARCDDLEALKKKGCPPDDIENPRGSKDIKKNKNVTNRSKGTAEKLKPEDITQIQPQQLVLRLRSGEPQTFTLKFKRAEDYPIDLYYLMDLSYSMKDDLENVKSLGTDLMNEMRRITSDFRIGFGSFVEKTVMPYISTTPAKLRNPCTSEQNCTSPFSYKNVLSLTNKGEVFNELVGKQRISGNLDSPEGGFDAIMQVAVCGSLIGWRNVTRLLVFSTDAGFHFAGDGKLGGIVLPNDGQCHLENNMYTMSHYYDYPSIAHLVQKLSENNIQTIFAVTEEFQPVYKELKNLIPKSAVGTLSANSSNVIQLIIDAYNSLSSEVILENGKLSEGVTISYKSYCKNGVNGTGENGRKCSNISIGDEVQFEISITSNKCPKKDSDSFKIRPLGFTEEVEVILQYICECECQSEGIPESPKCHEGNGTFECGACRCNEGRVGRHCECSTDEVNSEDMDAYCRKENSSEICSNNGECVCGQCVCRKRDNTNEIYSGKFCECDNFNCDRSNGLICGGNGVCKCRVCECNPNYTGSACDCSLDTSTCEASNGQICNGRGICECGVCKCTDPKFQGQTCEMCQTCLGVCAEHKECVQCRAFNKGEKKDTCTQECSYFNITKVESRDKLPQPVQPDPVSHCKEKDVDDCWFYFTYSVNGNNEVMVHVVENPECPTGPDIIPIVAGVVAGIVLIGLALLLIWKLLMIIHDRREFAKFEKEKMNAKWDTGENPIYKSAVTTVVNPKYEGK

Turning to B1, in experiment [1], the binding result is recorded as “binds”.

Regarding B2, the binding result in experiment [2] and in experiment [3] was “no binding (tested: 0.5 µg/well)” each time. Also, in experiment [4], the fold above background is around 15 fold.

B3: VCAM-1 domains 1 and 2 fused to human immunoglobulin Fc (Fc fusion, UniProt P19320 25-220, looked up)
chain: FKIETTPESRYLAQIGDSVSLTCSTTGCESPFFSWRTQIDSPLNGKVTNEGTTSTLTMNPVSFGNEHSYLCTATCESRKLEKGIQVEIYSFPKDPEIHLSGPLEAGKPITVKCSVADVYPFDRLEIDLLKGDHLMKSQEFLEDADRKSLETKSLEVTFTPVIEDIGKVLVCRAKLHIDEMDSVPTVRQAVKELQVY
notes: domain: domains 1 and 2; also called two domain form of VCAM-1; two domain VCAM-1 expression construct; not shown: human immunoglobulin Fc
On to B3, for which the binding result in experiment [5] is listed as “binds”.

B4: CD11a I domain/IgG chimeric protein (Fc fusion, UniProt P20701 153-335, looked up)
chain: GNVDLVFLFDGSMSLQPDEFQKILDFMKDVMKKLSNTSYQFAAVQFSTSYKTEFDFSDYVKRKDPDALLKHVKHMLLLTNTFGAINYVATEVFREELGARPDATKVLIIITDGEATDSGNIDAAKDIIRYIIGIGKHFQTKESQETLHKFASKPASEFVKILDTFEKLKDLFTELQKKIYVIE
notes: domain: I domain; Negative control in the I domain ELISA; also called CD11a/IgG4 protein; not shown: IgG4 portion
Turning to B4, the binding result in [6], in experiment [7] and in experiment [8] was “no binding” each time.

As to B5, the binding result in [9] was “no binding”.

B6: E-selectin (immobilized) (ligand, UniProt P16581 22-556, looked up)
chain: WSYNTSTEAMTYDEASAYCQQRYTHLVAIQNKEEIEYLNSILSYSPSYYWIGIRKVNNVWVWVGTQKPLTEEAKNWAPGEPNNRQKDEDCVEIYIKREKDVGMWNDERCSKKKLALCYTAACTNTSCSGHGECVETINNYTCKCDPGFSGLKCEQIVNCTALESPEHGSLVCSHPLGNFSYNSSCSISCDRGYLPSSMETMQCMSSGEWSAPIPACNVVECDAVTNPANGFVECFQNPGSFPWNTTCTFDCEEGFELMGAQSLQCTSSGNWDNEKPTCKAVTCRAVRQPQNGSVRCSHSPAGEFTFKSSCNFTCEEGFMLQGPAQVECTTQGQWTQQIPVCEAFQCTALSNPERGYMNCLPSASGSFRYGSSCEFSCEQGFVLKGSKRLQCGPTGEWDNEKPTCEAVRCDAVHQPPKGLVRCAHSPIGEFTYKSSCAFSCEEGFELHGSTQLECTSQGQWTEEVPSCQVVKCSSLAVPGKINMSCSGEPVFGTVCKFACPEGWTLNGSAARTCGATGHWSGLLPTCEAPTESNIP
notes: Control adhesion molecule; also called E-selection
For the molecule B6, the binding result in experiment [10] is “no binding (tested: 100 ng/ml coat)”.
